We go through 4 molecules from PMC5159555 (Nucleic Acids Research, 2016).

Where two headings read alike, the source gives them in different places.

The target of assay [1] is His6-tagged chicken FANCD2 (chicken, UniProt Q68Y81 1-1439). Put plainly: pull-down.
For assay [2], the target named is T1, His6-tagged chicken FANCI (chicken, UniProt B0I564 1-1338).
T1 sequence (looked up): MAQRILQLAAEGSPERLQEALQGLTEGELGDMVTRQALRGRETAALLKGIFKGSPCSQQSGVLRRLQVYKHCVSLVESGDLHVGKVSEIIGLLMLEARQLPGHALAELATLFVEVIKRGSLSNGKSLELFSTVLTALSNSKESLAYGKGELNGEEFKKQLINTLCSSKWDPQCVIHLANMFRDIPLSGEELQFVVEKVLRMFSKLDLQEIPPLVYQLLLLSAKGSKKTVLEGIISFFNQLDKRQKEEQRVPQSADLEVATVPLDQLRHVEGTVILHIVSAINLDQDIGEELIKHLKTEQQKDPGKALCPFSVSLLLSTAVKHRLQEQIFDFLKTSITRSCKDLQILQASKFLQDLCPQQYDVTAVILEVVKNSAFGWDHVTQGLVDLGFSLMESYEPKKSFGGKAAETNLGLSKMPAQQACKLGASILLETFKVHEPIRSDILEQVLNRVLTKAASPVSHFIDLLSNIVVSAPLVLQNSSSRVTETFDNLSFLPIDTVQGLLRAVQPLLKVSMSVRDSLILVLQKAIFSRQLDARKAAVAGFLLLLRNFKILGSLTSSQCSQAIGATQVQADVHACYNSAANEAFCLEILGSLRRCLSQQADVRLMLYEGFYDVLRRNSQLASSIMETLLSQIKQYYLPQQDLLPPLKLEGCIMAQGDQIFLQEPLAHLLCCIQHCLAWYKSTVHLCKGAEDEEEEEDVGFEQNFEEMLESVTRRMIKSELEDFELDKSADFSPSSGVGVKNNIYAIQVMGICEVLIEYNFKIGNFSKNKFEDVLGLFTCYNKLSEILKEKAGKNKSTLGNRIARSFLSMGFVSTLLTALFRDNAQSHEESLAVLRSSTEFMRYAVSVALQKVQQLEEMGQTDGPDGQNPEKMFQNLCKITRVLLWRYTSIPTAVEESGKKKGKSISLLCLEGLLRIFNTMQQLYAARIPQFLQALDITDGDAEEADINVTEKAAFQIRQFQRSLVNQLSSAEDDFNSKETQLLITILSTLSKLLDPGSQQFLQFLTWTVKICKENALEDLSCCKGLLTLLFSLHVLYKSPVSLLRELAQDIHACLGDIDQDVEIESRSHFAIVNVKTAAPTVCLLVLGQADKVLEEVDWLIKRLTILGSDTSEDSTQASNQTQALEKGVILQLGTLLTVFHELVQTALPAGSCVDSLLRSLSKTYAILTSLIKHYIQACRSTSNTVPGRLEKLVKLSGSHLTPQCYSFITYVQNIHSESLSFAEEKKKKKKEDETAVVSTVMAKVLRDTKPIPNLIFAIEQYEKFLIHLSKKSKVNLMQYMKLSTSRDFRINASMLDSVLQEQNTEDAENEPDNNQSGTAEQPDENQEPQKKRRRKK
Description: pull-down.

The target in assay [3] is His6-tagged FANCD2 complexed with FANCI (chicken, UniProt Q68Y81 1-1439; B0I564 1-1338). Put plainly: pull-down.
The target in assay [4] is T2, FANCI-FANCD2 (I-D) complex (chicken, UniProt B0I564 1-1338; Q68Y81 1-1439). Put plainly: pull-down.
Assay [5] has as its target T2, FANCI-FANCD2 (I-D) complex. Description: pull-down. The source holds these as a separate data set.
The next assay addresses chicken FANCD2 (chicken, UniProt Q68Y81 1-1439). Description: SEC.

T2 sequence (Q68Y81 whole entry, one chain of several): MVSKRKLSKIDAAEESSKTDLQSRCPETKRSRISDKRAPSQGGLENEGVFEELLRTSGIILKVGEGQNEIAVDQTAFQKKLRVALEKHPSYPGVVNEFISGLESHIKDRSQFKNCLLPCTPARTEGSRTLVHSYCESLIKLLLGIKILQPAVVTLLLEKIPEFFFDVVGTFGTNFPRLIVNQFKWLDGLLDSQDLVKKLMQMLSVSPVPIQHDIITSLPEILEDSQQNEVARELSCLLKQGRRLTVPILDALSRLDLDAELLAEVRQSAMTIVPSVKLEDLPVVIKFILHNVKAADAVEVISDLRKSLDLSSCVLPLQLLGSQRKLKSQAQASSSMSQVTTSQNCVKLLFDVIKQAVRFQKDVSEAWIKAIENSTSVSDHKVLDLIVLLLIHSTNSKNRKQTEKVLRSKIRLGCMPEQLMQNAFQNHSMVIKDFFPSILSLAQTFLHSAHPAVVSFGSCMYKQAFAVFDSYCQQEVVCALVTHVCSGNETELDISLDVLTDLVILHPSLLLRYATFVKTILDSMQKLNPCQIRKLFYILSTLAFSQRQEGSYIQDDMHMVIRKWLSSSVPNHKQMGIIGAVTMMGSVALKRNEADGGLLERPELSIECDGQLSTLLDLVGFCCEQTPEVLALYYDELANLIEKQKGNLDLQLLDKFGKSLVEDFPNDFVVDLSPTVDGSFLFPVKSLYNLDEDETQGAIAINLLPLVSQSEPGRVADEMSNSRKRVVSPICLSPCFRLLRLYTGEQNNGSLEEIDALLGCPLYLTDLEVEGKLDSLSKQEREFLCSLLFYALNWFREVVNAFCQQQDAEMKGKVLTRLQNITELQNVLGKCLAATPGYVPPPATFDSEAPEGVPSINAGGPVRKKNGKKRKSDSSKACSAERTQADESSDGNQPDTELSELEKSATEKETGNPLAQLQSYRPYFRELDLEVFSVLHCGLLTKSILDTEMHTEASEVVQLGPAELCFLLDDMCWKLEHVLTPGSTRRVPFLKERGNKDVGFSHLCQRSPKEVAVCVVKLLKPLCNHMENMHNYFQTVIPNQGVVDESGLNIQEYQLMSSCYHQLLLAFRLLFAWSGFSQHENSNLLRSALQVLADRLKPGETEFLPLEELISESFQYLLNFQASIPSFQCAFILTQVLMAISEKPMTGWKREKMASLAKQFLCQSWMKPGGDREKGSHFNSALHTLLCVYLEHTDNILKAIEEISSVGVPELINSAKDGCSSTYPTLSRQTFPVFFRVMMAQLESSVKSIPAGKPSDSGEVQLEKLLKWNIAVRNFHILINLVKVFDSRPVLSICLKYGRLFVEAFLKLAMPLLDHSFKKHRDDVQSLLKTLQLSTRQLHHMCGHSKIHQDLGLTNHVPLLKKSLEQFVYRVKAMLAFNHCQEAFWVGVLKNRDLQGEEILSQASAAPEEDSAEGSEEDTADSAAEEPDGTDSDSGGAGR
Chain of His6-tagged chicken FANCD2 (Q68Y81 whole entry): as the sequence (Q68Y81 whole entry, one chain of several) above
Chain of chicken FANCD2 (Q68Y81 whole entry): as the sequence (Q68Y81 whole entry, one chain of several) above
Chain of His6-tagged FANCD2 complexed with FANCI (Q68Y81 whole entry, one chain of several): as above

B1: chicken RAD51 (natural protein, UniProt P37383 1-339, looked up)
chain: MAMQVQFEASTDTSAEEESFGPEPISRLEQCGINANDVKKLEEAGYHTVESVAHAPKKELLNIKGISEAKADKILAEAAKLVPMGFTTATEFHQRRSEIIQITTGSKELDKLLQGGIETGSITELFGEFRTGKTQLCHTLAVTCQLPIDRGGGEGKAMYIDTEGTFRPERLLAVAERYGLSGSDVLDNVAYARGFNTDHQTQLLYQASAMMAESRYALLIVDSATALYRTDYSGRGELSARQMHLARFLRMLLRLADEFGVAVVITNQVVAQVDGAAMFAADPKKPIGGNIIAHASTTRLYLRKGRGETRICKIYDSPCLPEAEAMFAINADGVGDAKE
With B1, the binding result in assay [1], in assay [2], in assay [3] and in assay [4] was “binds” each time.

B2: His6-tagged chicken RAD51 (natural protein, UniProt P37383 1-339, looked up)
chain: MAMQVQFEASTDTSAEEESFGPEPISRLEQCGINANDVKKLEEAGYHTVESVAHAPKKELLNIKGISEAKADKILAEAAKLVPMGFTTATEFHQRRSEIIQITTGSKELDKLLQGGIETGSITELFGEFRTGKTQLCHTLAVTCQLPIDRGGGEGKAMYIDTEGTFRPERLLAVAERYGLSGSDVLDNVAYARGFNTDHQTQLLYQASAMMAESRYALLIVDSATALYRTDYSGRGELSARQMHLARFLRMLLRLADEFGVAVVITNQVVAQVDGAAMFAADPKKPIGGNIIAHASTTRLYLRKGRGETRICKIYDSPCLPEAEAMFAINADGVGDAKE
Take B2: in assay [5], the binding result is “binds”.

B3: His6-tagged chicken RAD51 F86E mutant (natural protein, UniProt P37383 1-339, looked up)
chain: MAMQVQFEASTDTSAEEESFGPEPISRLEQCGINANDVKKLEEAGYHTVESVAHAPKKELLNIKGISEAKADKILAEAAKLVPMGETTATEFHQRRSEIIQITTGSKELDKLLQGGIETGSITELFGEFRTGKTQLCHTLAVTCQLPIDRGGGEGKAMYIDTEGTFRPERLLAVAERYGLSGSDVLDNVAYARGFNTDHQTQLLYQASAMMAESRYALLIVDSATALYRTDYSGRGELSARQMHLARFLRMLLRLADEFGVAVVITNQVVAQVDGAAMFAADPKKPIGGNIIAHASTTRLYLRKGRGETRICKIYDSPCLPEAEAMFAINADGVGDAKE
In the case of B3, the binding result in assay [5] is listed as “binds”.

B4: chicken FANCI (natural protein, UniProt B0I564 1-1338, looked up)
chain: MAQRILQLAAEGSPERLQEALQGLTEGELGDMVTRQALRGRETAALLKGIFKGSPCSQQSGVLRRLQVYKHCVSLVESGDLHVGKVSEIIGLLMLEARQLPGHALAELATLFVEVIKRGSLSNGKSLELFSTVLTALSNSKESLAYGKGELNGEEFKKQLINTLCSSKWDPQCVIHLANMFRDIPLSGEELQFVVEKVLRMFSKLDLQEIPPLVYQLLLLSAKGSKKTVLEGIISFFNQLDKRQKEEQRVPQSADLEVATVPLDQLRHVEGTVILHIVSAINLDQDIGEELIKHLKTEQQKDPGKALCPFSVSLLLSTAVKHRLQEQIFDFLKTSITRSCKDLQILQASKFLQDLCPQQYDVTAVILEVVKNSAFGWDHVTQGLVDLGFSLMESYEPKKSFGGKAAETNLGLSKMPAQQACKLGASILLETFKVHEPIRSDILEQVLNRVLTKAASPVSHFIDLLSNIVVSAPLVLQNSSSRVTETFDNLSFLPIDTVQGLLRAVQPLLKVSMSVRDSLILVLQKAIFSRQLDARKAAVAGFLLLLRNFKILGSLTSSQCSQAIGATQVQADVHACYNSAANEAFCLEILGSLRRCLSQQADVRLMLYEGFYDVLRRNSQLASSIMETLLSQIKQYYLPQQDLLPPLKLEGCIMAQGDQIFLQEPLAHLLCCIQHCLAWYKSTVHLCKGAEDEEEEEDVGFEQNFEEMLESVTRRMIKSELEDFELDKSADFSPSSGVGVKNNIYAIQVMGICEVLIEYNFKIGNFSKNKFEDVLGLFTCYNKLSEILKEKAGKNKSTLGNRIARSFLSMGFVSTLLTALFRDNAQSHEESLAVLRSSTEFMRYAVSVALQKVQQLEEMGQTDGPDGQNPEKMFQNLCKITRVLLWRYTSIPTAVEESGKKKGKSISLLCLEGLLRIFNTMQQLYAARIPQFLQALDITDGDAEEADINVTEKAAFQIRQFQRSLVNQLSSAEDDFNSKETQLLITILSTLSKLLDPGSQQFLQFLTWTVKICKENALEDLSCCKGLLTLLFSLHVLYKSPVSLLRELAQDIHACLGDIDQDVEIESRSHFAIVNVKTAAPTVCLLVLGQADKVLEEVDWLIKRLTILGSDTSEDSTQASNQTQALEKGVILQLGTLLTVFHELVQTALPAGSCVDSLLRSLSKTYAILTSLIKHYIQACRSTSNTVPGRLEKLVKLSGSHLTPQCYSFITYVQNIHSESLSFAEEKKKKKKEDETAVVSTVMAKVLRDTKPIPNLIFAIEQYEKFLIHLSKKSKVNLMQYMKLSTSRDFRINASMLDSVLQEQNTEDAENEPDNNQSGTAEQPDENQEPQKKRRRKK
Consider B4, for which the binding result with chicken FANCD2 is “binds”.
